According to paper PMC5794963, “Link between the causative genes of holoprosencephaly: Zic2 directly regulates Tgif1 expression”:

How the values were obtained:
[1] = molecular target: GLI3-ZF-CH6 (GLI3 ZFD) (UniProt P10071 480-632); assay: EMSA; preferred over ZBS core; Footprinting: 20 mM Tris-HCl pH 8.0, 3 mM MgCl2, 5 mM CaCl2, 100 mM NaCl, 100 mM DTT, 0.1 mM EDTA, 50 ug/ml BSA, 25 C, 30 min; EMSA conditions as in earlier work; details: protein: recombinant; blunt
[2] = molecular target: T1, F-HA-Zic2 (UniProt Q62520 1-530); assay: EMSA; even at 3-fold excess over ZBS core; Footprinting: 20 mM Tris-HCl pH 8.0, 3 mM MgCl2, 5 mM CaCl2, 100 mM NaCl, 100 mM DTT, 0.1 mM EDTA, 50 ug/ml BSA, 25 C, 30 min; EMSA conditions as in earlier work; details: protein: recombinant; tags: N-terminal FLAG-HA; blunt
[3] = molecular target: T1, F-HA-Zic2; assay: competition; against N9; inhibits complex formation; Footprinting: 20 mM Tris-HCl pH 8.0, 3 mM MgCl2, 5 mM CaCl2, 100 mM NaCl, 100 mM DTT, 0.1 mM EDTA, 50 ug/ml BSA, 25 C, 30 min; EMSA conditions as in earlier work; details: protein: recombinant; tags: N-terminal FLAG-HA; label: none
[4] = molecular target: T1, F-HA-Zic2; assay: competition; against N1; shifted bands disappear completely; Footprinting: 20 mM Tris-HCl pH 8.0, 3 mM MgCl2, 5 mM CaCl2, 100 mM NaCl, 100 mM DTT, 0.1 mM EDTA, 50 ug/ml BSA, 25 C, 30 min; EMSA conditions as in earlier work; details: protein: recombinant; tags: N-terminal FLAG-HA; label: none
[5] = molecular target: T1, F-HA-Zic2; assay: competition; against N8; inhibits complex formation; Footprinting: 20 mM Tris-HCl pH 8.0, 3 mM MgCl2, 5 mM CaCl2, 100 mM NaCl, 100 mM DTT, 0.1 mM EDTA, 50 ug/ml BSA, 25 C, 30 min; EMSA conditions as in earlier work; details: protein: recombinant; tags: N-terminal FLAG-HA; label: none

T1 sequence (Q62520 whole entry): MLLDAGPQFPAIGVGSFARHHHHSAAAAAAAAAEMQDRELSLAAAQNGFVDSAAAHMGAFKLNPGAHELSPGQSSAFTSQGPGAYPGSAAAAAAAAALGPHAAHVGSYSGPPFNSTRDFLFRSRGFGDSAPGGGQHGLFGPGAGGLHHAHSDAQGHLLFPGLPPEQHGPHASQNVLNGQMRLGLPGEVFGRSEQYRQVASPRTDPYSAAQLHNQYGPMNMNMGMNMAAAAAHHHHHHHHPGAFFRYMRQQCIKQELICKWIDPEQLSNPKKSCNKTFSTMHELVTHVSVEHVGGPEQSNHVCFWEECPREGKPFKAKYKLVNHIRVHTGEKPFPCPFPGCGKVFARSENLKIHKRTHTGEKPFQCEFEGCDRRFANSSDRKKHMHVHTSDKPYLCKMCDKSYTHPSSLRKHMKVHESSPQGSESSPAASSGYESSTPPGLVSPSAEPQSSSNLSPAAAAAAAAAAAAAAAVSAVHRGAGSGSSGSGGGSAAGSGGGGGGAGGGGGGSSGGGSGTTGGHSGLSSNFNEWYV
Chain of GLI3-ZF-CH6 (GLI3 ZFD) (P10071 480-632): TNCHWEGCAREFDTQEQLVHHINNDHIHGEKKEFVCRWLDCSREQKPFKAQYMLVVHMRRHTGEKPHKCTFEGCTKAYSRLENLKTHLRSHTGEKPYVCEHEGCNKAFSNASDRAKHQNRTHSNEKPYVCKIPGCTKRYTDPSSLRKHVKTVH

B1: GBS probe (dsDNA)
DNA 1: CGTCTTGGGTGGTCTCCCTC
DNA 2: GAGGGAGACCACCCAAGACG
Q: Does B1 bind [1]?
A: Result: binds

Q: Does B1 bind [2]?
A: Result: no binding

B2: cp11 (-1830 to -1811) (dsDNA)
DNA 1: CCCGAGTCCCCGGCGGATGT
DNA 2: ACATCCGCCGGGGACTCGGG
Q: Does B2 bind [3]?
A: Result: binds

B3: cp4 (-1728 to -1709) (dsDNA)
DNA 1: CCCGCACCACATGAGTCCCG
DNA 2: CGGGACTCATGTGGTGCGGG
Q: Does B3 bind [4]?
A: Result: binds

B4: cp8 (-1688 to -1669) (dsDNA)
DNA 1: GTCATCCCCTGCCGGGTCCC
DNA 2: GGGACCCGGCAGGGGATGAC
Q: Does B4 bind [5]?
A: Result: binds
